Substrate in data set [1]: CC=O
Kind of data set: AdhA alcohol dehydrogenase enzyme assay, Michaelis-Menten kinetics in cell extracts of P. furiosus strain A. The format is biochemical, Thermoanaerobacter strain X514. The conditions noted are these: other: recombinant AdhA in cell extracts of P. furiosus strain A, 50 mM Mops pH 7.5, 2 mM DTT, 70° C., nonlinear regression.

Substrate in data set [2]: CCCC=O
Described as above. The format is biochemical, Thermoanaerobacter strain X514. The conditions noted are these: other: recombinant AdhA in cell extracts of P. furiosus strain A, 50 mM Mops pH 7.5, 2 mM DTT, 70° C., nonlinear regression.

B1: T. X514 AdhA (Thermoanaerobacter ethanolicus) (protein)
chain: MWETKINPNKVFELRCKNTTYFGIGSIKKIKDILEVLKNKGINNVILVTGKGSYKASGAWDVVKPALETLGFKYSLYDKVGPNPTVDMIDEAAKIGRETGAKAVIGIGGGSPIDTAKSVAVLLEYTDKNARELYEQKFIPEKAAPIIAINLTHGTGTEVDRFAVATIPEKNYKPAIAYDCLYPMYAIDDPSLMTKLDKKQTIAVTIDALNHVTEAATTLVASPYSVLMAKETVRLIVRYLPAAVNDPENLVARYYLLYASALAGISFDNGLLHLTHALEHPLSAVKPEIAHGLGLGAILPAVVKAIYPSVAEVLAEVYSPIVPGLKGLPAEAEYVAKKVEEWLFKVGCTQKLSDFGFTKEDIPTLVRLAKTTPSLDGLLSNAPVEATEAVIAKIYEESF
Consider B1, for which the Km was 63 µM in data set [1] and 166 µM in data set [2].

The term Km denotes the concentration of substrate that gives half-maximal velocity.
